The values that follow come from US20240002535A1 (Merck Sharp & Dohme, published 2024).

Assay [1] concerns the target T1, human arginase 1 (hArg1), trimeric (human, UniProt P05089 1-322).
T1 construct: Natural homotrimer; It carries two Mn ions in each active site; also called Human Arg1 trimer; trimeric hArg1
T1 sequence: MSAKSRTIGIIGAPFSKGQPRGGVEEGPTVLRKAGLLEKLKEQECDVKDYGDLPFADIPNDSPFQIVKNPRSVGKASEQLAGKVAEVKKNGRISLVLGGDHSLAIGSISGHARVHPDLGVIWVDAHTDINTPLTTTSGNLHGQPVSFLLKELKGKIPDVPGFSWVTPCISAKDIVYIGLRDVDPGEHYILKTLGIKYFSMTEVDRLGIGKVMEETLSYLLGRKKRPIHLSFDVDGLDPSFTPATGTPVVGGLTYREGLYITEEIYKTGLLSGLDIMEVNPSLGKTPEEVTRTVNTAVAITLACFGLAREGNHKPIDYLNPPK
Put plainly: isothermal titration calorimetry: hArg1 trimer (100 µM, syringe) titrated into mAb4 mouse/human chimera (10 µM, cell) at 25 °C. The procedure:
(§1) Isothermal titration calorimetry (ITC) was conducted using a MicroCal PEAQ-ITC Automated (Malvern Inc, Westborough, MA) to determine the stoichiometry and thermodynamics properties of the hArg1:mAb interaction. […] Arginase (100 μM) in the ITC syringe was titrated into the antibody (10 μM) in the ITC cell at 25° C. Reference power was set to 10 μcal/sec with initial delay of 60 seconds and stirring speed of 750 rpm. Injection volume was 0.4 μL for the first injection and 4 μL for subsequent injections. Injection duration was 0.8 seconds for the first injection and 6 seconds for subsequent injections with 150 sec spacing. Baseline was adjusted using buffer-buffer titration. Data analysis was done using MicroCal PEAQ-ITC Analysis Software.
In general terms: ITC needs no label: the signal is the heat of the interaction.

Assay [2] has as its target T1, human arginase 1 (hArg1), trimeric. Put plainly: ITC, hArg1 trimer (100 uM, syringe) titrated into the antibody (10 uM, cell) at 25 C. The protocol: as §1

B1: mAb4 (mouse/human chimera) (antibody, V domains shown)
VH: EVQLQQSGPVLVKPGASVKMSCKASEYTFTDYYMNWVKQSHGRSLEWIGVISPYNGGTTYNQKFKGKATLTVDKSSSTAYMELNSLTSEDSAVYYCVYDLYYFDYWGQGTTLTVSS
VL: NIVLTQSPATLSVTPGDSVSLSCRASQRISNDLHWYQQKSHESPRLLIKYASQSISGIPSRFSGSGSGTDFTLSINSVETEDFGMYFCQQSNSWPRTFGGGTKLEIK
As to B1, in assay [1], the “-TΔS” value amounted to 3 kcal/mol, the ΔG is -10.7 kcal/mol and the ΔH was -13.7 kcal/mol. Further, in assay [2], the “stoichiometry n (ITC)” value came to 0.637.
